Results published in US20030049258A1, “Method of increasing the contractility of a heart, a heart muscle or cells of a heart muscle” (priority 2001, published 2003).

What was measured:
[1] = tested on: adult ventricular cardiomyocytes; assay: Intracellular cAMP formation in cardiomyocytes (ELISA); assay type: cell-based, rabbit
Description: (§1) Single calcium-tolerant ventricular myocytes were isolated from White New Zealand rabbits. Cardiomyocytes from healthy or failing rabbit hearts were isolated according to the same protocol (Laugwitz et al. (2001) Circ Res. 88, 688-95). Briefly, the hearts were perfused and digested with collagenase. The isolated cardiomyocytes were then resuspended and cultured in modified M199 on laminin-precoated dishes (5-10 μg/cm^2) at a density of 1.5×10^5 cells per cm^2 (at 5% CO2 and 37° C.). The cells were infected with adenovirus (multiplicity of infection (moi) 1 pfu/cell) 5 hours after plating. 50-60% of the infected cardiomyocytes express the transgene at this titer. Cardiomyocytes were harvested 48 hours after adenoviral infection. The cells were homogenized and cytosolic extracts were then used for western bloffing by using a polyclonal rabbit antibody raised against phosducin. Goat anti-rabbit second antibodies by Dianova, Germany, were used as second antibodies.
Intracellular cAMP formation in cardiomyocytes: The effects of nt-del-phosducin expression on G protein-mediated signalling are shown based on the measurement of cAMP accumulation in isolated cardiomyocytes after ex vivo gene transfer. Cardiomyocytes were investigated 48 hours after adenoviral infection. The cells were harvested and stimulated with increasing concentrations of isoproterenol for 20 minutes. […]

[2] = tested on: cardiomyocytes isolated from healthy hearts; assay: Single cell contraction after ex vivo adenoviral gene transfer, healthy cardiomyocytes; assay type: cell-based, rabbit
Description: (§2) Recombinant (E1/E3-Deficient) flag-tagged adenovirus for nt-del-phosducin (Ad-nt-del-phosducin-GFP) was generated, expressing the transgene and green fluorescence protein (GFP) under the control of two independent CMV promoters in a bi-cistronic system (He et al. (1998) Proc Natl Acad Sci USA 95, 2509-14). As a control, Ad-GFP without further transgenes was used. Large virus stocks were prepared as described previously (Laugwitz et al. (1999) Circulation 99, 925-933). Adenoviral titers were determined using plaque titration and GFP expression titration in non E1-expressing cells.
as §1
(§3) Single cell contraction after adenovirus delivery: Contractility of infected cardiomyocytes was measured by an electro-optical monitoring system connected to online digitalized assessment of amplitude and velocity of shortening and of relaxation as described before (Laugwitz et al. (2001) Circ Res. 88, 688-95). After the contraction amplitude reached stability, increasing concentrations of isoproterenol were applied.

[3] = tested on: cardiomyocytes isolated from failing hearts; assay: Single cell contraction after ex vivo adenoviral gene transfer, failing cardiomyocytes; assay type: cell-based, rabbit
Description: as §2, §1, §3

[4] = tested on: Gβγ-dependent signalling pathways; assay: IP3 assay: inhibition of Gβγ-mediated effects in adenovirus-infected cardiomyocytes; assay type: cell-based, rabbit; details: response to 1 μmol/L bradykinin or 10 μmol/l acetylcholine, 1 minute, vs Ad-GFP
Description: For IP3 assays, adenovirus-infected cardiomyocytes were stimulated with the respective agonists for 1 minute, and the reaction was stopped by adding perchloric acid (4%) and scratching the cells off. They were centrifuged at 2000×g, and then […] of KOH (10 mol/L) was added. The solution was resuspended and centrifuged again, and the protein content of each sample was determined by the method of Bradford (1976) Anal. Biochem. 72, 248-254. The supernatant was used for an assay kit using ^3H-inositol-(1,4,5)-trisphophate and a binding protein (Amersham, cat. no. TRK 1000) to measure IP3 formation, following the manufacturer's instructions.
For IP3 assays, cardiomyocytes infected with Ad-GFP or Ad-nt-del-phosducin-GFP (Example 1) were stimulated with 1 μmol/L bradykinin or 10 μmol/l acetyl choline, for 1 minute. In addition, basal levels were determined in the absence of agonists. Then the reaction was stopped by adding perchloric acid (4%) and scratching the cells off. They were centrifuged at 2000×g, and then 10 μl of KOH (10 mol/L) was added. The solution was resuspended and centrifuged again, and the protein content of each sample was determined by the method of Bradford^22. The supernatant was used for an assay kit using ^3H-inositol-(1,4,5)-trisphophate and a binding protein (Amersham, cat. no. TRK 1000) to measure IP3 formation, following the manufacturer's instructions. […]

[5] = tested on: rabbits with heart failure; assay: Pacing-induced heart failure after in vivo adenoviral gene transfer: tip catheterization and echocardiography; set-up: species or system New Zealand White rabbits
From the text: Model of Heart Failure: Medtronic pacemakers were implanted into New Zealand White rabbits (weight 3.6±0.3 Kg; from Harlan, Munich, Germany). Two days afterwards, rapid pacing was initiated at 320 beats/min. Under this protocol, a tachycardia-induced heart failure (HF) develops reproducibly over one week. Pacing was then continued at 360 beats/min, which predictably led to a further deterioriation of heart failure. The average contractility in failing hearts was 2200±320 mmHg/sec (vs. 4000±390 mmHg/sec in healthy controls; p<0.05), and LVEDP increased from 3.6±0.4 mmHg to 13.5±1.2 (p<0.05).
Adenoviral Gene Transfer To Rabbit Myocardium: After the first week of rapid pacing, all rabbits received catheter-based adenoviral gene transfer (5×10^9 pfu) to the myocardium as described before (Weig et al. (2000) Circulation 101, 1578-1585). For the intervention, the rabbitswere anesthetized with fentanyl and propofol.
Myocardial Contractility Measurement by Echocardiography and Intraventricular Tip Catheterization: Left ventricular contractility was examined before the initiation of rapid pacing, before adenoviral gene transfer, and at the end of the protocol (two weeks after the start of pacing and one week after gene transfer). The rabbits were anesthetized as described before; ECG was monitored continuously.
For echocardiography, a 7.5 MHz probe was fixed on a tripod. Standard sections were recorded, which were well reproducible. For tip catheter measurements, a Millar 3F tip catheter connected to a differentiating device was placed in the left ventricle. After definition of basal contractility and left ventricular pressure, 200 μL of NaCl (0.9%) was injected as a negative control. Isoproterenol was infused at increasing doses. After a sufficient equilibration period, tip catheter measurements were carried out.
Improvement of LV dysfunction in pacing-induced heart failure after adenovirus delivery: Ad-GFP and Ad-nt-del-phosducin-GFP were directly delivered to rabbit hearts after 1 week of rapid pacing, and hemodynamic parameters were measured after another week of pacing at 360 bpm. […]

[6] = tested on: transgenic heart failure model (β1-TG4); assay: Transgenic mouse overexpressing full-length phosducin cross-bred with heart failure model (histology); assay type: in vivo; details: heart-failing mice vs heart-failing mice cross-bred with overexpressing mice
Description: FIG. 8 Histological alterations in transgenic mouse hearts. Hematoxylin/eosin-stained 5 μm sections of paraffin-embedded left ventricular myocardium from healthy wild-type mice and from a transgenic heart failure model (,β-TG4”, see Engelhardt et al. (1999) Proc. Natl. Acad. Sci. USA 96, 7059-64). […] The sequence of full-length phosducin was cloned into a plasmid as described by Engelhardt et al. (1999) Proc. Natl. Acad. Sci. USA 96, 7059-64. The purified linear DNA (1 μg/μl) was injected into fertilized oocytes from superovulated FVB/N mice according to standard procedures. The injected oocytes were transferred to the oviducts of pseudopregnant CD-1 mice. All mice were kept in a specific pathogen-free facility. Generation and investigation of these mice was approved by the responsible government authorities. The F0 generation was screened for integration of the transgene by PCR using specific primers. The transgenic mouse was tested with regard to the effect of overexpression of wild type full-length phosducin on the development of heart failure in a murine disease model.

adenylyl cyclase = details: compared to controls in different cell types and tissues (Bauer et al. 1992; Schulz et al. 1996); cited from earlier work

CC(C)NCC(O)c1ccc(O)c(O)c1 (stereo not drawn) [isoproterenol, reference compound]
intracellular cAMP content ([1]; isoproterenol stimulation, all groups, FIG. 3): increased

B1: nt-del-phosducin: N-terminal truncated human phosducin variant of SEQ ID No: 2 (52 N-terminal amino acids deleted), expressed from adenovirus Ad-nt-del-phosducin-GFP (protein, listed as Homo sapiens)
chain: MSSPQSRDDKDSKERFSRKMSVQEYELIHKDKEDENCLRKYRRQCMQDMHQKLSFGPRYGFVYELESGEQFLETIEKEQKITTIVVHIYEDGIKGCDALNSSLICLAAEYPMVKFCKIKASNTGAGDRFSSDVLPTLLVYKGGELLSNFISVTEQLAEEFFTGDVESFLNEYGLLPEKEMHVLEQSNMEEDME
modifications: GFP expressed via adenovirus
basal and maximal contractility in response to isoproterenol ([2]; compared to Ad-GFP-infected control cells, FIG. 5A): markedly increased | shortening velocity ([2]; compared with contraction amplitude results, normal and failing cardiomyocytes): Very similar results | Emax of fractional shortening in response to isoproterenol ([2]; healthy cells, infected ex vivo, Hill equation fit): 11.2±0.2 | shift of isoproterenol concentration-response curve ([2]; normal cells): significantly shifted to the left | maximal contraction amplitude in response to isoproterenol ([3]; failing cardiomyocytes, FIG. 5B): enhanced | shift of isoproterenol concentration-response curve ([3]; failing cells): significantly shifted to the left | Emax of fractional shortening in response to isoproterenol ([3]; failing cells, infected ex vivo, Hill equation fit): 7.8±0.1 | cAMP formation in response to isoproterenol ([1]; 48 hours after infection, isoproterenol 20 minutes, vs GFP, did not reach statistical significance): trend towards decreased cAMP formation | intracellular IP3 formation [4]: reduced | LV fractional shortening (FS) by serial echocardiography ([5]; change during the second week of rapid pacing (before gene transfer vs end of experiment)): did not change | first derivative of LV pressure (dp/dt max) ([5]; one week after gene transfer, in response to isoproterenol, vs Ad-GFP-infected control group): significantly higher | increase in systolic LV pressure in response to isoproterenol ([5]; one week after gene transfer, vs Ad-GFP-infected control group): significantly higher

B2: full-length phosducin: Wild type full-length phosducin, Gβγ binding protein; overexpressed in transgenic mouse hearts (protein)
chain: MEEAKSQSLEEDFEGQATHTGPKGVINDWRKFKLESQDSDSIPPSKKEILRQMSSPQSRNGKDSKERVSRKMSIQEYELIHKEKEDENCLRKYRRQCMQDMHQKLSFGPRYGFVYELETGKQFLETIEKELKITTIVVHIYEDGIKGCDALNSSLTCLAAEYPIVKFCKIKASNTGAGDRFSLDVLPTLLIYKGGELISNFISVAEQFAEEFFAGDVESFLNEYGLLPEREVHVLEHTKIEEEDVE
degree of heart failure (histologically: myocyte hypertrophy and fibrosis of heart sections) [6]: no observable differences | maximal βAR-dependent adenylyl cyclase stimulability (adenylyl cyclase): significantly decrease
